In the domain aggregation screens of Martell et al. (2025):

test: soluble fraction after stress (log2 fold change); higher = more stays soluble; pooled small domains, quantitative proteomics; details: stress: 50 degC
Method in brief: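 Pooled custom libraries of small protein domains were each held under stress at 50°C. The read-out, high-throughput quantitative proteomics, tracked how much of each protein stayed soluble. This is reported as a base-two log fold change used to indicate aggregation propensity. Higher values mean more protein remains in solution.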

In order of rising “soluble fraction (log2)” value:
1. HMDSKPNDLLFVYVSQLIRSLTLNSSKKDSELADELEVSISQIRIWLKKLINEQLIVKESKPVKYRWKG  -2.95
2. HMSKIRSEINKFSSDADKPILEWLFERYHWASQWRFVARFSEQRYGVLSYEINRVWEPTIEGRALYDQL  -2.34
3. HMLNAPFGFRIEDDTLIPIPEEAKVVRQIFRYYLQGMGFGKIAQELNGQDVPGKPWGKERIKYILSNEKYI  -2.09
4. HMLTALTDREEEILVLLAHNLSNKEIAKRLNLSVNTVRNHTSHIYEKLNVTSRRKAITLAQSLHLLPP  -1.35
5. HMEGDAFAFTGDIQKDLLSITAVHPMRREAVDALIAKAGASWAIVEKLLAHGELTEAKHDGHLFYLRKF  -0.81
6. HMLAPLAEMRGDTLDRLEKAVLELFSSRDFHEVSLQDVARRANVSLQTIYKYFGSKEALVYTMLDTLLGR  -0.661
7. HMLTLDEKRRLQIMRVQVALTSLGLYNGRVDGVLNAETKLGLEFFQDLKGLPKSGTMTTPTLNALGVPA  -0.423
8. HMAVPLVRGTVTSSVGTVLLLSVGERDFFLSEGEEKDGVLLQSLSEKSAVVVVSGRAYTLSL  -0.408
9. HMGAVVSPMPGVILDIKVKEGDSVSEGQTVIILEAMKMENEIVSEFTGTVSAIRVKKGDTVDTDAVLVEI  -0.393
10. HMHINLEGLKKIDFRKKIGFLFGSEASGLSNKEVSYANYTLQIPTNINFKSLNLSHSLIIIAQFISSLLNS  -0.333
11. HMNSKSFIFHIEDEEGIRLDVFLADNLPDVSRSYVQKLIDEEHVKVNGQSAKSRLKTVSGMEITVDVPAPK  -0.321
12. HMEAVIENAAIIKQNSGGYAVRATVNGVDLGMKPVERATALLYFSLTDKLEKDRLLSHTLQKTYGDLSA  -0.254
13. HMVVEGMQFDRGYLSQYMVTDNEKMVADLENPYILITDKKISNIQEILPLLESILQSSRPLLIIADD  -0.214
14. HMDVSEITTIKWIIKETKLGINEKILIYVNSKNFTVETLMEGFEIMSKYLVENVSSDKIVYIKN  -0.179
15. HMFNISEKLKKYRNALGLTQTEVAEKIEITKPTYASYEKGKDISIGTLKKLADLFEVSFESFFSE  -0.168
16. HMRREIRLTVTEEIVLMKFLLTQIPYKNRDNFKTLLNDRQIRVNGSVVTWYNHPLKPGQEVTIGWFKM  -0.168
17. HMRSDHVFTSHLARRDKYISELESLSDSARDDHIQTIKEEDEYLLKYRRTRNLFGIPLNDEMKQFEPFNY  -0.131
18. HMYEPPTEDEKRVLSLLATRESIVRSDVDRLLGVSQSTANRILKQMIEKYLISQEGTGKNTKYIK  -0.0391
19. HMRRVRRTRRLLQDGLLGLMQHKAVADISVKELAEAADVARATVYVHFKDPADVLHQLEQGLY  -0.0324
20. HMPNPSAGRVHIDALLPFDRVEVTDMQGSLLLDHSFSPRRAVDLDLNARGTLLYTLWSKGHLLGKGRVVR  0.0169
21. HMKKDDLKQINGIGTTIEKKLNEIDIYNFYQISNLSKEDIETISEKIKTFPGKIERDNWVGQAQELL  0.0191
22. HMKKITTANPLDINRATLAQLDTLPGIGPVTAERIIAYRSKVGRINSLDELKKISGLGGMKFEEIKPLLRV  0.042
23. HMDRNEFVSTLRAALTGAVSPAIVEDNVRYYQNYISQEIASGKSEKEVLDGLGDPRLIARTIIDT  0.0674
24. HMVSTSVTVTGDLNVRADSRADSDLVGALIPGQTVTRLAVLDNGWSKIRFDDGAGTVVEGYVLSEYLQADG  0.0817
25. HMAKSPYDVLGLKEDAPFDEVKKRYRELVKKYHPDILMGRGESEEMIEKSTRKLQEINEAYETIKQRA  0.118
26. HMLPGERFKVKIAQAGKEKKQGIGYLNDGTMVVIENGIEKVGEEVEAVVIKVIQSSAGKIIFSEVAK  0.195
27. HMKRFSPPSIEEVDSYIREKGYTVDAERFVNFYESKGWYVGKNKMKNWRAAVATWQKEDNKRN  0.199
28. HMERPKSLRELALEHLRNSIIDGSLKMGQVLSERKISEELGVSKSPVREALAQLRDEGLVSIEPQKGARV  0.213
29. HMAHKRVDGTIVTPLTADTIVLRTGTHGEQPFEIRDTTRHKLESLQKGDMVILLIDTDNKVIDVAIPP  0.423
30. HMRITTKNYFKAISEVGFENLPEVLKKSHLVIEEKTNKGNDWGIYENDAEAKKVFDLAFDKLEEFIDRKED  0.45
